# From patent publication US20200207859A1 (priority 2017, published 2020)
# T1: CD74 (Homo sapiens, UniProt P04233)
# T1 construct: endogenous in cells; host or cells: B-lymphoma, multiple myeloma and leukemia cell lines
# T1 sequence (P04233 1-296): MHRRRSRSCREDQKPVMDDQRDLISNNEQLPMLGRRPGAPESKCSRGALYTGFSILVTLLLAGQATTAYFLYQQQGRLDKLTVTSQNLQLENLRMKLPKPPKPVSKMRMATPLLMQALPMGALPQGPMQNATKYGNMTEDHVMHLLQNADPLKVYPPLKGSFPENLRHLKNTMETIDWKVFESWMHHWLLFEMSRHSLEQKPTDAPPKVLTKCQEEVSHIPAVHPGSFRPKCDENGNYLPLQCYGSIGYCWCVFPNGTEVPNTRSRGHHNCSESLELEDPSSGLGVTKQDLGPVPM
# B1: anti-CD74 (antibody, V domains shown)
# VH: QVQLVESGGGVVQPGRSLRLSCAASGFNFSDYGMHWVRQAPGKGLEWVAVIWYDGSISYYADSVKGRFTISRDNSKNTLYLQMNSLRAEDTAVYYCARGGTVEHGAVYGTDVWGQGTTVTVSS
# VL: DIQMTQSPSSVSASVGDRVTITCRASQGIGSWLAWYQQKPGKAPKLLIYAADRLQSGVPSRFSGSGSGTDFTLTISSLQPEDFATYYCQQYHTYPLTFGGGTKVEIK
# modifications: non-natural residues
# B2: Conjugate F: anti-CD74 IgG containing residue 30 conjugated to a PEG4-MMAE precursor (conjugate)
# VH: B1 VH
# VL: B1 VL
# B3: Conjugate C: anti-CD74 IgG containing residue 30 conjugated to a val-cit-PAB-hemiasterlin precursor (conjugate)
# VH: B1 VH
# VL: B1 VL
# modifications: non-natural residues
# Key:
# CD74 [1] = biological target: T1, CD74; assay: Cell binding assay (FACS), anti-CD74 antibody without conjugation; parameters: key: NK = no killing; NB = no binding
# Protocol: (§1) Cell lines were maintained in RPMI, high glucose (Cellgro-Mediatech; Manassas, Va.) supplemented with 20% heat-inactivated fetal bovine serum (Hyclone; Thermo Scientific; Waltham, Mass.), 2 mM glutamax (Invitrogen; Carlsbad, Calif.) and 1× Pencillin/streptomycin (Cellgro-Mediatech; Manassas, Va.). Cells were harvested and re-suspended in FACS buffer (DPBS buffer supplemented with 1% bovine serum albumin). […] Cells were washed twice with ice-cold FACS buffer and incubated with 5 ug/ml Alexa 647 labeled donkey anti-human IgG antibody (Jackson Immune-Research) on ice for another 60 mins. Unstained cells and cells stained with secondary antibody alone were used as controls. Samples were then washed twice using FACS buffer and analyzed using a BD FACS Canto system. Mean fluorescence intensities were fitted using non-linear regression analysis with one site specific binding equation on GraphPad Prism. Data was expressed as geometric mean fluorescent intensity vs. antibody concentration in nM.
# CD74 [2] = biological target: T1, CD74; assay: as above
# Protocol: as §1
# CD74 [3] = biological target: T1, CD74; assay: as above; parameters: unit: geometric MFI
# Protocol: as §1
# BDCM (AML) = assay: Cell killing assay (cell proliferation, Cell Titer-Glo); assay type: cell-based; details: 72 hrs
# Protocol: (§2) Cytotoxicity effects of the free drug linkers and conjugates were measured with a cell proliferation assay. A total of 12500 cells in a volume of 25 μl were seeded in a 384-well flat bottom white polystyrene plate on the day of assay. Free drug-linkers and conjugates were formulated at 2× starting concentration (1000 nM for free drug linkers and 100 nM for ADCs) in RPMI medium and filtered through MultiScreen HTS 96-Well Filter Plates (Millipore). Filter sterilized samples were serial diluted (1:3) under sterile conditions and added into treatment wells. Plates were cultured at 37° C. in a CO2 incubator for 72 hrs. For cell viability measurement, 30 μl of Cell Titer-Glo® reagent (Promega Corp.) was added into each well, and plates processed as per product instructions. Relative luminescence was measured on an ENVISION® plate reader (Perkin-Elmer; Waltham, Mass.). Relative luminescence readings were converted to % viability using untreated cells as controls. Data was fitted with non-linear regression analysis, using log(inhibitor) vs. response, variable slope, 4 parameter fit equation using GraphPad Prism. Data was expressed as % relative cell viability vs. dose of free drug-linker or conjugate in nM.
# RPMI-6666 (HL) = assay: as above; assay type: cell-based; details: 72 hrs
# Protocol: as §2
# SUP-B15 (ALL) = assay: as above; assay type: cell-based; details: 72 hrs
# Protocol: as §2
# JVM-13 (CLL) = assay: as above; assay type: cell-based; details: 72 hrs
# Protocol: as §2
# ARD (MM) = assay: as above; assay type: cell-based, human; details: 72 hrs
# Protocol: as §2
# SU-DHL-6 (NHL) = assay: as above; assay type: cell-based, human; details: 72 hrs
# Protocol: as §2
# ARP-1 (MM) = assay: as above; assay type: cell-based, human; details: 72 hrs
# Protocol: as §2
# RPMI-8226 (MM) = assay: as above; assay type: cell-based; parameters: key to Cell Killing Activity Span: NK = no killing; NB = no binding; details: 72 hrs
# Protocol: as §2
# K562 (CML) = assay: as above; assay type: cell-based; parameters: key to Cell Killing Activity Span: NK = no killing; NB = no binding; details: 72 hrs
# Protocol: as §2
# OPM-2 (MM) = assay: as above; assay type: cell-based; parameters: key to Cell Killing Activity Span: NK = no killing; NB = no binding; details: 72 hrs
# Protocol: as §2
Molecule,Cell Killing Activity Span (BDCM (AML)) [%],Cell Killing Activity Span (RPMI-6666 (HL)) [%],Cell Killing Activity Span (SUP-B15 (ALL)) [%],Cell Killing Activity Span (JVM-13 (CLL)) [%],Cell Killing Activity Span (ARD (MM)) [%],Cell Killing Activity Span (SU-DHL-6 (NHL)) [%],Cell Killing Activity Span (ARP-1 (MM)) [%],Cell Killing Activity Span (RPMI-8226 (MM)) [%],Cell Killing Activity Span (K562 (CML)),IC50 (K562 (CML)) [nM],Cell Killing Activity Span (OPM-2 (MM)),IC50 (OPM-2 (MM)) [nM],also measured
B1,,,,,,,,,,,,,Cell Binding Bmax (CD74 [1]; K562 (CML) cells): NB; Cell Binding Bmax (CD74 [1]; OPM-2 (MM) cells): NB; Kd (CD74 [2]; ARD (MM) cells): 2.6 nM; Kd (CD74 [2]; BDCM (AML) cells): 4.5 nM; Kd (CD74 [2]; JVM-13 (CLL) cells): 2.5 nM; Kd (CD74 [2]; RPMI-6666 (HL) cells): 2.3 nM; Kd (CD74 [2]; RPMI-8226 (MM) cells): 3.6 nM; Kd (CD74 [2]; SU-DHL-6 (NHL) cells): 2 nM; Kd (CD74 [2]; SUP-B15 (ALL) cells): 3.5 nM; Cell Binding Bmax (CD74 [3]; ARD (MM) cells): 190; Cell Binding Bmax (CD74 [3]; ARP-1 (MM) cells): 341; Cell Binding Bmax (CD74 [3]; BDCM (AML) cells): 3059; Cell Binding Bmax (CD74 [3]; JVM-13 (CLL) cells): 447; Cell Binding Bmax (CD74 [3]; RPMI-6666 (HL) cells): 3879; Cell Binding Bmax (CD74 [3]; RPMI-8226 (MM) cells): 119; Cell Binding Bmax (CD74 [3]; SU-DHL-6 (NHL) cells): 1565; Cell Binding Bmax (CD74 [3]; SUP-B15 (ALL) cells): 680
B2,94,82,65,59,73,97,93,31,NK,> 50,NK,> 50,IC50 (BDCM (AML)): 1.4 nM; IC50 (SUP-B15 (ALL)): 3.7 nM; IC50 (JVM-13 (CLL)): 5 nM; IC50 (ARD (MM)): 16 nM; IC50 (ARP-1 (MM)): 4.2 nM; IC50 (RPMI-8226 (MM)): 20 nM
B3,89,84,68,54,74,97,87,43,NK,> 50,NK,> 50,
